In the nanobody polyreactivity screen of Harvey et al. (2022):

Assay: yeast display, Sf9 membrane polyspecificity reagent, FACS + sequencing; frameworks hold sequencing errors
Procedure, shortened: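 Nanobodies came from a synthetic yeast display library in Saccharomyces cerevisiae BJ5465, induced with galactose for 36–48 hours and stained for 1 hour at 4 °C with 10% biotinylated, detergent-solubilized Sf9 membrane reagent. Cells were enriched on streptavidin microbeads and then FACS-sorted, with low and high (top ~1%) gates set on anti-HA fluorescence for expression and streptavidin fluorescence for reagent binding. Each polyreactivity label reflects the gate a clone came from. Genes were amplified by colony PCR, sequenced by MiSeq 2 × 250 and filtered by CDR length.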

Row | Sequence | polyreactivity (PSR sort gate)
1 | QVQLVESGGGLVQAGGSLRLSCAASGFTFPQYAMGWYRQAPGKERELFAAISKRSGGTRYADSGKGRFTISRDNSKNTVYLHMKSLKPEDTAVNYCINYGQVPGYFTLEYLGQGTQVTVSS | high polyreactivity
2 | QVQLVESGGGIVQAGGSLRLICAASGFTFGYYTMGWYRQAPGKEREFVAAISGSGTNTYYADSVKGRFTISRDYAKNTVYLQMNSLKPEYTAVYYCNARWSLVSSGFDGGYWGQGSQVTVSS | high polyreactivity
3 | QVQLVESGGGLVQAGGSLRLSCAASGSTFRSYAMGWYRQAPWKERELVAAISSSGGSTYYADSVKGRFTISRDNANNTVYLQMNSLKPEDTAVYICAADFLYYEYDYWGQGTQVTVSS | low polyreactivity
4 | QVQLGESVGGLVQAGGSLRLSCAASGSILFPYPMGWYRQAPGKERELVAAISWSGDSTRYADSVKGRFTISRDNAKNTVYLQMNSLKPEVTAVYYCATSSDATGTFAPMDSWGQGTQVTVSS | low polyreactivity
5 | QVQLVESGGGLVQAGGRLLLSCAASGSTFTHYAMGWYRQAPGKERELVPAISWGAGSTYYADSVKGRFTNSRDNAKNTVYLQMNSLKPEDTAVYYCAAYLYRYGHKYYSWGQGTQVTVSS | high polyreactivity
6 | QVQLVESGGGLVQAGGSLRLSCAASGSILGYYAMGWYRQAPGKERELVADIDNGTSTYYADSVKGRFTISRDNANNTVYLQMISLKPEDTAVYYCADEYYSRYFQSYYWGQGTQVTVSS | low polyreactivity
7 | QVQLVESGGGLVQAGGSLRLSCAASGFTFSTYAMGWDRQAPGKERELVAAISRSGGSTYYADSVKGRFTISRDNAKNTVYLQMNSLKPEDTAVYYCAVRPFRSAGGSVTRGAYYYWGQGTQVTVSS | high polyreactivity
8 | HVQHVDSGAGLVQAGGSLRLSCAASGRTFVGYAMGWYRQAPGKEREFVADITYDSGSTYYADSVKGRFTISRDNAKNTVYLQMNSLKPEDTAVYYCNAKYYYWWYDVDYWGQGTQVTVSS | high polyreactivity
9 | QVQLVESGGGLVQAGGSLRLSCAASGRTVEQNAMGLYRQAPGKERELVASITSVGSTDYADSVKGRFTISRDNAKNTVYLQMNSLKPEDTAVYYCAKTLGSQNYDFDYWGKGTQVTVSS | low polyreactivity
10 | QVQLVESGGGLVQAGGSLRLSCAASGRIFKRNAMGWYRQAPGKERELVAAINWSGGSTYYADSVKGRFTISRDNAKNTVYLQMNSLKPEDTAVYYCAALRVQGDYDYWGQGTQVTVSS | high polyreactivity
11 | QVQLVDSGGGLVQAGGSLRLSCAASGSIFDPNAMGWYRQAPGKERELVADIDSSDGSTYYADSVKGRFTISRDNAKNTVYLQMNSLKPEDTAVYYCNALSALAVEDGYWGQGTQVTVSS | low polyreactivity
12 | QVQLVESGGGLVQAGGSLRLSCAASGSTFPSYAMGWYRQAPGKERELVASITSSGGSTYYADSVKGRFTISRDNAKNTVYLQMNSLKPEDTAVYYCNARRYYYSWGREGGYWGQGTQVTVSS | low polyreactivity
13 | QVQLVESGGGLVQAGGSLRLSCAASGRIFNQYGMGWYRPAPGKERELVAAIRSGDSTNYADSVKGRFTISRDNAKNTVELQMNSLKPEDTAVYYCARDRPGDYAGYDYWGQGTQVTVSS | low polyreactivity
14 | QVQLVESGGGLVQAGGSLRLSCAASGYIFVYNAMGWYRQAPGKERELVAAISTTGGRTYYADSVKGRFTISRDNAKNTVYLLMNSLKPEDTAVYYCAARAYYAWTLFGYWGQGTQVTVSS | high polyreactivity
15 | QVQLVESGGGLVQAGGSLRLSCAASGSIFYDYAMGWYRQAPGKERELVADITDDSTNYADSVKGRFTISRDNAKNTVYLQMNSLKPEDTAVYYCAVDWYWGWYWDGGVLTYYYWGQGTQVTVSS | low polyreactivity
16 | QVQLVESGGGLVQAGGRHRLICAATGITYKSNPMGWYIQAPGTETELVAAIARRASSTYYADSVKGRFTISRDNAKNTVYLHMNSLNPEDTAVYYCNAVLPVYRTNLDYWGQGTQVTVSS | high polyreactivity
17 | QVQLVESGGGLVQAGGSLRLSCAASGSIFRIYAMGWYRQAPGKEREFVAAISSRGGRTYYADSVKGRFTISRDNAKNTVYLQMNSLKPEDTAVYYCNARATRGSYYEYEYWGQGTQVTVSS | high polyreactivity
18 | QVQLKENGVGLVQAGGSLRMSCAASGYISHADEMGWNSQAPGKEHELVASISNGGSTNYADSVKGRFTISRDNAKNSVYLQMNSLKSEDTAVYYCAAWTGQVDINYYWGQGSQVTVSS | low polyreactivity
19 | QVQLVESGGGLVQAGGSLRLSCAASGITFVQYAMGWYRQAPGKERELVAAIRRGGSTSYADSVKGRFTISRDNAKNTVYLQMNSLKPEDTAVYYCARRYDWPITPLDVEYWGQGTQVTVSS | low polyreactivity
20 | QVQLVESGGGLVQAGGSLRLSCAASGSTCAANAMGWYRQAPGKERELVAGISESVDRTYADSVKGRFTISRDNAKNTVYLQMNSLKPEDTAVYYCKVGANVYLLYFPSRGGVYDYGYWGQGTQVTVSS | low polyreactivity

Row | Sequence | polyreactivity (PSR sort gate)
21 | QVQIVESGGGLVQAGGSLRLSCAASGSIFGPYVMGWYRQAPGKERELVAAISKSRGSTYYADSVKGRFTISRDNAKNTVYLQMNSLKPEDTAVYYCATDYLGGGKRYYYWGQGTQVTVSS | high polyreactivity
22 | QVQLVESGGGLVQAGGSLRLSCSASGLIFPSNTMGWYRQAPGTERELVAAITFSGDSTNYADSVKGRFTISRDNAKNTVYVQMNSLKPEDTAVYYCAASQVSDTTRFGYWGQGTQVTVSS | low polyreactivity
23 | QVQIVESGGGLVQAGGSLRLSCAASGFTFWNYAMGWYRQAPGKERELVATITRSGGRTYYADSVKGRFTISRDHAKNTGYLQMNSLIPEDTAVYYCSARVWPVVYSWGYNYLGQGTQVTVSS | high polyreactivity
24 | QVQLVDSGGGLVQAGGSLRLSCAASGRTIGGNAMGWSRQAPGKERELVAGINISGGSTNYADSVKGRFTISRDNAKNTVYLQMNSLKPEDTAVYYCNADTAVYAWDDDYWGQGTQVTVSS | low polyreactivity
25 | QVQLVESGGGLVQAGGSLRLSCAASGFIFDYNAMGWYRQAPGKERELVAAIDITGGSTYYADSVKGRFTISRDNAKNTVYLQMNSLKPEDTAVYYCNRPYYIWVYSGYSGYDYWGQGTQVTVSS | low polyreactivity
26 | QVQLVESGGGLVQAGGSLRLSCAASGITFIRNAMGWYRQAPGKERELVAAISYRGGSTYYADSVKGRFTISRDNAKNTVYLQMNSLKPEDTAVYYCAAARKLDATTYYKFDYWGQGTQVTVSS | high polyreactivity
27 | QVQLVESGGGLVQAGGSLRLSCAASGITFTRNVMGWYRQAPGKERELVAAISGSGGSTYYADSVKGRFTISRDNEKNTVYLQMNSLKTEDTAVYYCAARSRGGRRYDYWGQGTQVTVSS | high polyreactivity
28 | QVQLVESGGGLVQAGGSLRLSCAASGSTFWAYVMGWYRQAPGKERELVASISSGGSTNYADSVKGRFTISRDNAKNTVYLQMNSLKPEDTAVYYCAKRPYPYKYDYWGQGTQVTVSS | high polyreactivity
29 | QVQLVESGGGLVQAGGSLRLSCAASGSTLRWNAMGWYRQAPGKERELVAAITYSGGSTYYADSVKGRFTISRDNAKNTVYLQMNSLKPEDTAVYYCAADSYRYRPGYGPVLYDYWGQGTQVTVSS | high polyreactivity
30 | QVQLVESGGGLVQAGGSLRLSCAASGSTFSAYAMGWYRQAPGKERELVASNSYSGSSTYYADSVKGRFTISRDNAKNTVYLQMNSLKPEESAVYYCAAVYVRKGTRYGYWGQGTQVTVSS | high polyreactivity
31 | QVQLVESGGGLVQAGGSLRLSCDASGFIFRYYDMGWYRQAPGKERELVAAISWRGGRTYYADSVKGRFTISRDNAKNTVYLQMNSLKPEVTAVYYCAAGFSLWTYPKPYGEDSWGQGTQVTVSS | high polyreactivity
32 | KVQLVESGGGLVQAGGSLRLSCAASGSNFVYNAMGWYRQAPGKEREFVAAISGSGGSTYYADSVKGRFTISRDNAKNTVYLQMNSLKPEDTAVYYCATAGRYGRYRTYPYRSKYDYWGQGTQVTVSS | high polyreactivity
33 | QVQLVESVGGLVQAGVSLRLSGAASGNTFVPYAMGWSRQAPGKESELVAAISLRGGSTYYADSVKGRFTISRDNAKNTVYLQMNSLKPEDTAVYYCAARTFYRPGLAGGYWGQGTQVTVAS | high polyreactivity
34 | QVQLVESGGGLVQAGGTLRLSCAATGITFDAYVMGWYRQAPGKERELVAGIYSGGSTYYADSVKGRFTISRDNAKNTVYLQMNSLKPEDTAVYYWARENYRFADEPPVSRQIPYDYWGQGTQVTVSS | low polyreactivity
35 | QVQLVESGGGLVQAGGSLRLSCAATGSTFLVNAMGWYRQAPGKERELVAAISRGGSTYADSVKGRFTISRDNAKNTVYLQMYSMNPEDTAVYYCNARRYQSYRYYYWGQGTQVTVSS | high polyreactivity
36 | QVQLVESGGGLVQAGGSLRLSCAASGFTFQKYAMGWYRQAPGKERELVAAISSSGGRTYYADSVKGRFTISRDNAKNTVYLQMNSLKPEDTAVYYCNAVPGYVYDYQYWGQGTQVTVSS | high polyreactivity
37 | QVQHVESGGGLVQAGGSLRLSCAASGRTLYRYAMGWSRQAPRKERELVAAIRSGGRTNYADSVKGRFTISRDNAKNTVYLQMNSLKPEDTAVYYCAARTLRYPSTFEYWGQGTQVTVSS | high polyreactivity
38 | QVQLVESGGGLVQAGGSLRLSCAASGRTFETYAMGWYRQAPGKERELVATIRSSGSTNYADSVKGRFTISRDNAKNTVYLQMNSLKPEDTAVYYCAAVYVYRTSYLISLYDYGYWGQGTQVTVSS | high polyreactivity
39 | QVQLVESGGGLVQAGGSLRLSCAASGRIFILYAMGWYRQAPGKERELVATITKSGGNTYYADSVKGRFTISRDNAKNTVYLQMNSLKPEDTAVYYCAAQGRDSTPHGYWGQGTQVTVSS | high polyreactivity
40 | QVQLVESGGGLVQAGGSLRLSCAASGRIFFWYAMGWYRQAPGKERELVAGITSGGSTNYADSVKGRFTISRDNAKNTVYLQMNSLKPEDTAVYYCNTVDSIPIGSGLYYYWGQGTQVTVSS | low polyreactivity
